Experimental data as given in US20100136005A1 (Genentech, published 2010).

Assays:
human CD11a [1] = biological target: T1, human CD11a (human, UniProt P20701 26-1170); experiment: cell-based or functional assay
human CD11a [2] = biological target: T1, human CD11a; experiment: cell-based or functional assay; remark: listed apart in the source
rhesus CD11a [3] = biological target: T2, rhesus CD11a (rhesus, UniProt H9Z8N3 26-1169); experiment: cell binding, rhesus against human CD11a
T2 construct: whole, on cells; also called rhCD11a
T2 sequence: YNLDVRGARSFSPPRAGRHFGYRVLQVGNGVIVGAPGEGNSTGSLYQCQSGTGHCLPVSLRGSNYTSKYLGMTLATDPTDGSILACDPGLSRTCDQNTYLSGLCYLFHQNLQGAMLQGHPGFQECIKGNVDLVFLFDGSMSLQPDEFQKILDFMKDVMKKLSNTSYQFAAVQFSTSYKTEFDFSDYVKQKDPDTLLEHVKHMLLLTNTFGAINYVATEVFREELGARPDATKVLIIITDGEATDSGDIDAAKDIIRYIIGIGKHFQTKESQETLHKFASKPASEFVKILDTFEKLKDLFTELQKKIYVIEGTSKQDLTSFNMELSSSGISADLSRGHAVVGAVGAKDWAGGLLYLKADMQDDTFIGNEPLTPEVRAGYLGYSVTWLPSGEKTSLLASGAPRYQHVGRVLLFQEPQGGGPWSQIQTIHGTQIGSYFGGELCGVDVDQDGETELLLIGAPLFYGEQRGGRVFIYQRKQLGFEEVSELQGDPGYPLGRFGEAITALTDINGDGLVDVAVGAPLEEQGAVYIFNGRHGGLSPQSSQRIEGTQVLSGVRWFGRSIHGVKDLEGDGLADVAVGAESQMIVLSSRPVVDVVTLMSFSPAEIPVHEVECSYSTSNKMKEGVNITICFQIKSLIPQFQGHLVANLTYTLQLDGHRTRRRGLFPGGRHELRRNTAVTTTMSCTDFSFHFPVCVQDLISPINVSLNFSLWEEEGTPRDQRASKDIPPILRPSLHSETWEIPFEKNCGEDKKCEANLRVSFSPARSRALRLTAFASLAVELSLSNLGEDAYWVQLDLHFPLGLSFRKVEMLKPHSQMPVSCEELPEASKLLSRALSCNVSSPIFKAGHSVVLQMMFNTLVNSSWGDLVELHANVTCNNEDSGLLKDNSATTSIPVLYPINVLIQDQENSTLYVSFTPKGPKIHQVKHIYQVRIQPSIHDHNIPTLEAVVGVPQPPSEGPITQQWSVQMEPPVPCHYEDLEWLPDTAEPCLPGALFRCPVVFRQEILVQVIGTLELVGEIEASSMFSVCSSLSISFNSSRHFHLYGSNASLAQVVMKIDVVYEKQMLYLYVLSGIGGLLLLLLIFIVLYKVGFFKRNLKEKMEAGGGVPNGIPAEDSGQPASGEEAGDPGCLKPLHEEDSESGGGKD

rhesus CD11a [4] = biological target: T2, rhesus CD11a; experiment: binding to rhesus peripheral blood lymphocytes
rhesus CD11a [5] = biological target: T2, rhesus CD11a; experiment: binding to rhesus peripheral blood lymphocytes; ratio to HuIgG1 EC50 (45.6 nM)
human CD11a [6] = biological target: T1, human CD11a; experiment: FACScan, Jurkat cells; ratio to HuIgG1 EC50 (0.042 nM)
Experimental: (§1) Aliquots of 10⁶ Jurkat T-cells were incubated with serial dilutions of humanized and control antibodies in PBS-0.1% BSA-10 mM sodium azide for 45 min at 4° C. The cells were washed and then incubated in fluorescein-conjugated goat anti-human F(ab′)₂ (Organon Teknika, Westchester, Pa.) for 45 min at 4° C. Cells were washed and analysed on a FACScan (Becton Dickinson, Mountain View, Calif.). 8×10³ cells were acquired by list mode and gated by forward light scatter versus side light scatter, thereby excluding dead cells and debris.

human CD11a [7] = biological target: T1, human CD11a; experiment: FACScan, Jurkat cells
Experimental: as §1

B1: murine MHM24 (antibody, V domains shown)
VH: EVQLQQPGAELMRPGASVKLSCKASGYSFTGHWMNWVRQRPGQGLEWIGMIHPSDSETRLNQKFKDKATLTVDKSSSSAYMQLSSPTSEDSAVYYCARGIYFYGTTYFDYWGQGTTLTVSS
VL: DVQITQSPSYLAASPGETISINCRASKTISKYLAWYQEKPGKTNKLLIYSGSTLQSGIPSRFSGSGSGTDFTLTISSLEPEDFAMYYCQQHNEYPLTFGTGTKLELKR
notes: Murine anti-human CD11a MAb; also called muMHM24; murMHM24
- IC50 Value (nM), human mixed lymphocyte response (human CD11a [1]): 0.19 nM
- IC50 Value (nM), Jurkat:HuK cell adhesion (human CD11a [2]): 0.09 nM
- fold reduction in binding (rhesus against human CD11a) (rhesus CD11a [3]): ~1000 fold

B2: chimeric MHM24 IgG1 (antibody, V domains shown)
VH: EVQLQQPGAELMRPGASVKLSCKASGYSFTGHWMNWVRQRPGQGLEWIGMIHPSDSETRLNQKFKDKATLTVDKSSSSAYMQLSSPTSEDSAVYYCARGIYFYGTTYFDYWGQGTTLTVSS
VL: DVQITQSPSYLAASPGETISINCRASKTISKYLAWYQEKPGKTNKLLIYSGSTLQSGIPSRFSGSGSGTDFTLTISSLEPEDFAMYYCQQHNEYPLTFGTGTKLELKR
- IC50 Value (nM), Jurkat:HuK cell adhesion (human CD11a [2]): 0.1 nM

B3: AspH54Ala (antibody, human IgG1, V domains shown)
VH: EVQLVESGGGLVQPGGSLRLSCAASGYSFTGHWMNWVRQAPGKGLEWVGMIHPSASETRYNQKFKDRFTISVDKSKNTLYLQMNSLRAEDTAVYYCARGIYFYGTTYFDYWGQGTLVTVSS
VL: DIQMTQSPSSLSASVGDRVTITCRASKTISKYLAWYQQKPGKAPKLLIYSGSTLQSGVPSRFSGSGSGTDFTLTISSLQPEDFATYYCQQHNEYPLTFGQGTKVEIK
notes: HuIgG1 variant (human IgG1); also called AspH54 change to Ala
- fold improvement over HuIgG1 (rhesus CD11a [4]): 3 fold

B4: AspH54Asn (antibody, human IgG1, V domains shown)
VH: EVQLVESGGGLVQPGGSLRLSCAASGYSFTGHWMNWVRQAPGKGLEWVGMIHPSNSETRYNQKFKDRFTISVDKSKNTLYLQMNSLRAEDTAVYYCARGIYFYGTTYFDYWGQGTLVTVSS
VL: DIQMTQSPSSLSASVGDRVTITCRASKTISKYLAWYQQKPGKAPKLLIYSGSTLQSGVPSRFSGSGSGTDFTLTISSLQPEDFATYYCQQHNEYPLTFGQGTKVEIK
notes: HuIgG1 variant (human IgG1); also called AspH54 change to Asn
- fold improvement of rhesus binding (against HuIgG1) (rhesus CD11a [4]): 10 fold
- Variant EC50/HuIgG1 EC50 (rhesus CD11a [5]): 0.1 ratio
- Variant EC50/HuIgG1 EC50 (human CD11a [6]): 26 ratio

B5: AspH54Gln (antibody, human IgG1, V domains shown)
VH: EVQLVESGGGLVQPGGSLRLSCAASGYSFTGHWMNWVRQAPGKGLEWVGMIHPSQSETRYNQKFKDRFTISVDKSKNTLYLQMNSLRAEDTAVYYCARGIYFYGTTYFDYWGQGTLVTVSS
VL: DIQMTQSPSSLSASVGDRVTITCRASKTISKYLAWYQQKPGKAPKLLIYSGSTLQSGVPSRFSGSGSGTDFTLTISSLQPEDFATYYCQQHNEYPLTFGQGTKVEIK
notes: HuIgG1 variant (human IgG1); also called AspH54 change to Gln
- Variant EC50/HuIgG1 EC50 (rhesus CD11a [5]): 4.4 ratio
- Variant EC50/HuIgG1 EC50 (human CD11a [6]): 20 ratio

B6: AspH54Glu (antibody, human IgG1, V domains shown)
VH: EVQLVESGGGLVQPGGSLRLSCAASGYSFTGHWMNWVRQAPGKGLEWVGMIHPSESETRYNQKFKDRFTISVDKSKNTLYLQMNSLRAEDTAVYYCARGIYFYGTTYFDYWGQGTLVTVSS
VL: DIQMTQSPSSLSASVGDRVTITCRASKTISKYLAWYQQKPGKAPKLLIYSGSTLQSGVPSRFSGSGSGTDFTLTISSLQPEDFATYYCQQHNEYPLTFGQGTKVEIK
notes: HuIgG1 variant (human IgG1); also called AspH54 change to Glu
- Variant EC50/HuIgG1 EC50 (human CD11a [6]): 16 ratio

B7: AspH54Lys (antibody, human IgG1, V domains shown)
VH: EVQLVESGGGLVQPGGSLRLSCAASGYSFTGHWMNWVRQAPGKGLEWVGMIHPSKSETRYNQKFKDRFTISVDKSKNTLYLQMNSLRAEDTAVYYCARGIYFYGTTYFDYWGQGTLVTVSS
VL: DIQMTQSPSSLSASVGDRVTITCRASKTISKYLAWYQQKPGKAPKLLIYSGSTLQSGVPSRFSGSGSGTDFTLTISSLQPEDFATYYCQQHNEYPLTFGQGTKVEIK
notes: HuIgG1 variant (human IgG1); also called AspH54 change to Lys
- Variant EC50/HuIgG1 EC50 (rhesus CD11a [5]): 3.8 ratio

B8: AspH54Ser (antibody, human IgG1, V domains shown)
VH: EVQLVESGGGLVQPGGSLRLSCAASGYSFTGHWMNWVRQAPGKGLEWVGMIHPSSSETRYNQKFKDRFTISVDKSKNTLYLQMNSLRAEDTAVYYCARGIYFYGTTYFDYWGQGTLVTVSS
VL: DIQMTQSPSSLSASVGDRVTITCRASKTISKYLAWYQQKPGKAPKLLIYSGSTLQSGVPSRFSGSGSGTDFTLTISSLQPEDFATYYCQQHNEYPLTFGQGTKVEIK
notes: HuIgG1 variant (human IgG1); also called AspH54 change to Ser
- Variant EC50/HuIgG1 EC50 (rhesus CD11a [5]): 0.9 ratio

B9: GluH56Ala (antibody, human IgG1, V domains shown)
VH: EVQLVESGGGLVQPGGSLRLSCAASGYSFTGHWMNWVRQAPGKGLEWVGMIHPSDSATRYNQKFKDRFTISVDKSKNTLYLQMNSLRAEDTAVYYCARGIYFYGTTYFDYWGQGTLVTVSS
VL: DIQMTQSPSSLSASVGDRVTITCRASKTISKYLAWYQQKPGKAPKLLIYSGSTLQSGVPSRFSGSGSGTDFTLTISSLQPEDFATYYCQQHNEYPLTFGQGTKVEIK
notes: HuIgG1 variant (human IgG1)
- fold improvement over HuIgG1 (rhesus CD11a [4]): 3 fold

B10: H2 (antibody, human IgG1, V domains shown)
VH: EVQLVESGGGLVQPGGSLRLSCAASGYSFTGHWMNWVRQAPGKGLEWVGMIAPADAETRYNQKFKDRFTISVDKSKNTLYLQMNSLRAEDTAVYYCARGIYFYGTTYFDYWGQGTLVTVSS
VL: DIQMTQSPSSLSASVGDRVTITCRASKTISKYLAWYQQKPGKAPKLLIYSGSTLQSGVPSRFSGSGSGTDFTLTISSLQPEDFATYYCQQHNEYPLTFGQGTKVEIK
notes: HuIgG1 variant (human IgG1); also called variant H2; HisH52Ala/SerH53Ala/SerH55Ala
- fold better than HuIgG1 (rhesus CD11a [4]): 18 fold

B11: H2A1 (antibody, human IgG1, V domains shown)
VH: EVQLVESGGGLVQPGGSLRLSCAASGYSFTGHWMNWVRQAPGKGLEWVGMIAPADSETRYNQKFKDRFTISVDKSKNTLYLQMNSLRAEDTAVYYCARGIYFYGTTYFDYWGQGTLVTVSS
VL: DIQMTQSPSSLSASVGDRVTITCRASKTISKYLAWYQQKPGKAPKLLIYSGSTLQSGVPSRFSGSGSGTDFTLTISSLQPEDFATYYCQQHNEYPLTFGQGTKVEIK
notes: HuIgG1 variant (human IgG1); also called HisH52Ala/SerH53Ala; HisH52Ala-SerH53Ala
- fold improvement in binding compared to HuIgG1 (rhesus CD11a [4]): 77 fold

B12: humanized MHM24 F(ab)-5 (Fab, V domains shown)
VH: EVQLVESGGGLVQPGGSLRLSCAASGFSFTGHWMNWVRQAPGKGLEWVGMIHPSDSETRYNQKFKDRFTISVDKSSSTLYLQMNSLRAEDTAVYYCARGIYFYGTTYFDYWGQGTLVTVSS
VL: DIQMTQSPSSLSASVGDRVTITCRASKTISKYLAWYQQKPGKAPKLLIYSGSSLESGVPSRFSGSGSGTDFTLTISSLQPEDFATYYCQQHNEYPLTFGQGTKVEIK
notes: F(ab) with human CL and CH1; Worked back from F(ab)-8
- fold improvement in binding (against F(ab)-2) (human CD11a [7]): 23 fold

B13: humanized MHM24 F(ab)-6 (Fab, V domains shown)
VH: EVQLVESGGGLVQPGGSLRLSCAASGFSFTGHWMNWVRQAPGKGLEWVGMIHPSDSETRYNQKFKDRFTISVDKSSSTLYLQMNSLRAEDTAVYYCARGIYFYGTTYFDYWGQGTLVTVSS
VL: DIQMTQSPSSLSASVGDRVTITCRASKTISKYLAWYQQKPGKAPKLLIYSGSTLQSGVPSRFSGSGSGTDFTLTISSLQPEDFATYYCQQHNEYPLTFGQGTKVEIK
notes: as for B12
- fold improvement in binding (against F(ab)-5) (human CD11a [7]): 4 fold

B14: humanized MHM24 F(ab)-7 (Fab, V domains shown)
VH: EVQLVESGGGLVQPGGSLRLSCAASGYSFTGHWMNWVRQAPGKGLEWVGMIHPSDSETRYNQKFKDRFTISVDKSSSTLYLQMNSLRAEDTAVYYCARGIYFYGTTYFDYWGQGTLVTVSS
VL: DIQMTQSPSSLSASVGDRVTITCRASKTISKYLAWYQQKPGKAPKLLIYSGSTLQSGVPSRFSGSGSGTDFTLTISSLQPEDFATYYCQQHNEYPLTFGQGTKVEIK
notes: as for B12
- fold improvement in binding (against F(ab)-6) (human CD11a [7]): 3 fold

B15: humanized MHM24 F(ab)-4 (Fab, V domains shown)
VH: EVQLVESGGGLVQPGGSLRLSCAASGFSFTGHWMNWVRQAPGKGLEWVGMIHPSDSETRYNQKFKDRFTISRDNSKNTLYLQMNSLRAEDTAVYYCARGIYFYGTTYFDYWGQGTLVTVSS
VL: DIQMTQSPSSLSASVGDRVTITCRASKTISKYLAWYQQKPGKAPKLLIYSGSSLESGVPSRFSGSGSGTDFTLTISSLQPEDFATYYCQQHNEYPLTFGQGTKVEIK
- fold reduction in binding (against F(ab)-2) (human CD11a [7]): 3 fold
